Results on one molecule are retold here after PMC2691479, “SNX4 in Complex with Clathrin and Dynein: Implications for Endosome Movement” (PLoS ONE, 2009).

The test has as its target T1, Sorting nexin 4 (SNX4), endogenous (human (endogenous in HEK293), UniProt O95219 1-450).
T1 construct: SNX4, endogenous in HEK293 cells, precipitated with anti-SNX4 (E-18); source: endogenous, HEK293 lysate
T1 sequence (looked up): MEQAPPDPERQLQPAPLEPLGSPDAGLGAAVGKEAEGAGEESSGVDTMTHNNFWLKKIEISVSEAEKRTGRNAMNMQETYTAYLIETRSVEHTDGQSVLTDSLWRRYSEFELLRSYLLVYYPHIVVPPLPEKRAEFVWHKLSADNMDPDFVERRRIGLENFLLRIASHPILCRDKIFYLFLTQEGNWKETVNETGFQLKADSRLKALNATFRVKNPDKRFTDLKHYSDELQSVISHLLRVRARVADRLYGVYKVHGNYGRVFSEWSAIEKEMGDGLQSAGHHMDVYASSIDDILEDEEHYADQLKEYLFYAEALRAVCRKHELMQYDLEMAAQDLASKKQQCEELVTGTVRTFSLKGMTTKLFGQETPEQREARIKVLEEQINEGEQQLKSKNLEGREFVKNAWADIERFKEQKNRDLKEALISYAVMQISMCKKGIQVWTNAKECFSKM
The test is described as follows: co-IP; anti-SNX4 (E-18) on Protein A Sepharose, HEK293 lysate (0.1 M NaCl, 10 mM Na2HPO4 pH 7.4, 1 mM EDTA, 1% Triton X-100), overnight at 4°C, Western blot; cells untreated, or transfected with control, SNX4 or CHC siRNA, or treated with nocodazole for 30 min. The note with it: partners not purified. For orientation: In western blotting, separated proteins are transferred to a membrane and probed.

B1: clathrin heavy chain (CHC), endogenous (natural protein, human (endogenous in HEK293), UniProt Q00610 1-1675, looked up)
chain: MAQILPIRFQEHLQLQNLGINPANIGFSTLTMESDKFICIREKVGEQAQVVIIDMNDPSNPIRRPISADSAIMNPASKVIALKAGKTLQIFNIEMKSKMKAHTMTDDVTFWKWISLNTVALVTDNAVYHWSMEGESQPVKMFDRHSSLAGCQIINYRTDAKQKWLLLTGISAQQNRVVGAMQLYSVDRKVSQPIEGHAASFAQFKMEGNAEESTLFCFAVRGQAGGKLHIIEVGTPPTGNQPFPKKAVDVFFPPEAQNDFPVAMQISEKHDVVFLITKYGYIHLYDLETGTCIYMNRISGETIFVTAPHEATAGIIGVNRKGQVLSVCVEEENIIPYITNVLQNPDLALRMAVRNNLAGAEELFARKFNALFAQGNYSEAAKVAANAPKGILRTPDTIRRFQSVPAQPGQTSPLLQYFGILLDQGQLNKYESLELCRPVLQQGRKQLLEKWLKEDKLECSEELGDLVKSVDPTLALSVYLRANVPNKVIQCFAETGQVQKIVLYAKKVGYTPDWIFLLRNVMRISPDQGQQFAQMLVQDEEPLADITQIVDVFMEYNLIQQCTAFLLDALKNNRPSEGPLQTRLLEMNLMHAPQVADAILGNQMFTHYDRAHIAQLCEKAGLLQRALEHFTDLYDIKRAVVHTHLLNPEWLVNYFGSLSVEDSLECLRAMLSANIRQNLQICVQVASKYHEQLSTQSLIELFESFKSFEGLFYFLGSIVNFSQDPDVHFKYIQAACKTGQIKEVERICRESNCYDPERVKNFLKEAKLTDQLPLIIVCDRFDFVHDLVLYLYRNNLQKYIEIYVQKVNPSRLPVVIGGLLDVDCSEDVIKNLILVVRGQFSTDELVAEVEKRNRLKLLLPWLEARIHEGCEEPATHNALAKIYIDSNNNPERFLRENPYYDSRVVGKYCEKRDPHLACVAYERGQCDLELINVCNENSLFKSLSRYLVRRKDPELWGSVLLESNPYRRPLIDQVVQTALSETQDPEEVSVTVKAFMTADLPNELIELLEKIVLDNSVFSEHRNLQNLLILTAIKADRTRVMEYINRLDNYDAPDIANIAISNELFEEAFAIFRKFDVNTSAVQVLIEHIGNLDRAYEFAERCNEPAVWSQLAKAQLQKGMVKEAIDSYIKADDPSSYMEVVQAANTSGNWEELVKYLQMARKKARESYVETELIFALAKTNRLAELEEFINGPNNAHIQQVGDRCYDEKMYDAAKLLYNNVSNFGRLASTLVHLGEYQAAVDGARKANSTRTWKEVCFACVDGKEFRLAQMCGLHIVVHADELEELINYYQDRGYFEELITMLEAALGLERAHMGMFTELAILYSKFKPQKMREHLELFWSRVNIPKVLRAAEQAHLWAELVFLYDKYEEYDNAIITMMNHPTDAWKEGQFKDIITKVANVELYYRAIQFYLEFKPLLLNDLLMVLSPRLDHTRAVNYFSKVKQLPLVKPYLRSVQNHNNKSVNESLNNLFITEEDYQALRTSIDAYDNFDNISLAQRLEKHELIEFRRIAAYLFKGNNRWKQSVELCKKDSLYKDAMQYASESKDTELAEELLQWFLQEEKRECFGACLFTCYDLLRPDVVLETAWRHNIMDFAMPYFIQVMKEYLTKVDKLDASESLRKEEEQATETQPIVYGQPQLMLTAGPSVAVPPQAPFGYGYTAPPYGQPQPGFGYSM
notes: clathrin heavy chain, endogenous in HEK293 cells, detected with anti-CHC; source: endogenous, HEK293 lysate
As to B1, the “fold change of CHC binding to SNX4, nocodazole-treated against untreated cells” value turned out to be 2.3 fold.
